{
  "source": "patent US6287813",
  "target": "tTA (TetR-VP16) (/ Herpes simplex virus) (UniProt P04483)",
  "sequence (P04483 whole entry)": "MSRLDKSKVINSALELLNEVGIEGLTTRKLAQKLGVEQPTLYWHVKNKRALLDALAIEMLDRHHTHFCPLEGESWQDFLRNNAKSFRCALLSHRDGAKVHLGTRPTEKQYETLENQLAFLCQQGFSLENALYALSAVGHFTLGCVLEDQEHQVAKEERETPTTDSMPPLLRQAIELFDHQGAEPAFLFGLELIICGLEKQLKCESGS",
  "test": "cell_activity",
  "conditions": "CHO-TWIN195 without antibiotic; 8.57% with TET",
  "data": [
    {"substance": "PhCMV*-1 (tet-responsive promoter)", "values": [
      {"measurement": "activity", "result": 18.6, "unit": "mU/ml SEAP"}
    ]}
  ]
}
